In PMC3438964 (The Journal of Biological Chemistry, 2012):
Substitutions are numbered along the chain they refer to. In names and notes the source's numbering stands.

Key:
[1] = target: T1, hUXS1 (Homo sapiens, UniProt Q8NBZ7); test: X-ray crystal structure, […] Å; format: binding; details: SeMet-labelled protein; 5 mM NAD+, 5 mM UDP; coenzyme site
T1 sequence (Q8NBZ7 85-402): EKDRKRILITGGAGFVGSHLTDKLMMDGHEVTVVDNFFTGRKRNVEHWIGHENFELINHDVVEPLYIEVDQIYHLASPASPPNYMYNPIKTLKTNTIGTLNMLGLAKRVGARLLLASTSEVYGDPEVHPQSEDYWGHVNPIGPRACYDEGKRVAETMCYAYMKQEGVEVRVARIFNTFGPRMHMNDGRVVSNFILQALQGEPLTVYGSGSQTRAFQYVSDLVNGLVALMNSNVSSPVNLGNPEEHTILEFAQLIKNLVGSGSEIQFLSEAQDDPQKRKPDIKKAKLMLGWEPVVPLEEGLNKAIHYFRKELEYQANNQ

[2] = substrate: O=C(O)[C@H]1O[C@H](OP(=O)(O)OP(=O)(O)OC[C@H]2O[C@@H](n3ccc(=O)[nH]c3=O)[C@H](O)[C@@H]2O)[C@H](O)[C@@H](O)[C@@H]1O; test: purified protein; details: 50 mM Tris/HCl pH 7.5, 25 °C

Molecule: NC(=O)c1ccc[n+]([C@@H]2O[C@H](COP(=O)(O)OP(=O)(O)OC[C@H]3O[C@@H](n4cnc5c(N)ncnc54)[C@H](O)[C@@H]3O)[C@@H](O)[C@H]2O)c1 [NAD^+]
- X-ray crystal structure, 1.26 Å [1]: We solved the crystal structure of hUXS1 in complex with NAD^+ and UDP

B1: hUXS1 (Homo sapiens) (protein)
chain: T1 sequence (Q8NBZ7 85-402)
- kcat ([2]; 0.5 mM NAD+): 0.2/oxidation^e

B2: hUXS1 (Homo sapiens; E204A) (protein)
chain: T1 sequence (Q8NBZ7 85-402) with E120A
- kcat ([2]; 10 mM NAD+): 1.7 × 10^−3/reduction^e
